Laboratory results from the supplement of paper PMC10065799, “High-throughput profiling of sequence recognition by tyrosine kinases and SH2 domains using bacterial peptide display” (eLife, 2023).
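Further: 11-residue human phosphosite peptides and single-mutation variants displayed on the E. coli surface, counted by deep sequencing, each peptide's frequency after selection divided by its frequency in the unselected input library; frequency after pTyr selection over input frequency; kinase dosed for 20-30% of maximal phosphorylation in three min.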

Each sequence was assayed against FGFR3 (UniProt P22607) (assay: phosphorylation enrichment, bacterial display (enrichment ratio); higher = better substrate or ligand; peptides without Tyr show the background).
FGFR3, sequence (P22607 whole entry, looked up): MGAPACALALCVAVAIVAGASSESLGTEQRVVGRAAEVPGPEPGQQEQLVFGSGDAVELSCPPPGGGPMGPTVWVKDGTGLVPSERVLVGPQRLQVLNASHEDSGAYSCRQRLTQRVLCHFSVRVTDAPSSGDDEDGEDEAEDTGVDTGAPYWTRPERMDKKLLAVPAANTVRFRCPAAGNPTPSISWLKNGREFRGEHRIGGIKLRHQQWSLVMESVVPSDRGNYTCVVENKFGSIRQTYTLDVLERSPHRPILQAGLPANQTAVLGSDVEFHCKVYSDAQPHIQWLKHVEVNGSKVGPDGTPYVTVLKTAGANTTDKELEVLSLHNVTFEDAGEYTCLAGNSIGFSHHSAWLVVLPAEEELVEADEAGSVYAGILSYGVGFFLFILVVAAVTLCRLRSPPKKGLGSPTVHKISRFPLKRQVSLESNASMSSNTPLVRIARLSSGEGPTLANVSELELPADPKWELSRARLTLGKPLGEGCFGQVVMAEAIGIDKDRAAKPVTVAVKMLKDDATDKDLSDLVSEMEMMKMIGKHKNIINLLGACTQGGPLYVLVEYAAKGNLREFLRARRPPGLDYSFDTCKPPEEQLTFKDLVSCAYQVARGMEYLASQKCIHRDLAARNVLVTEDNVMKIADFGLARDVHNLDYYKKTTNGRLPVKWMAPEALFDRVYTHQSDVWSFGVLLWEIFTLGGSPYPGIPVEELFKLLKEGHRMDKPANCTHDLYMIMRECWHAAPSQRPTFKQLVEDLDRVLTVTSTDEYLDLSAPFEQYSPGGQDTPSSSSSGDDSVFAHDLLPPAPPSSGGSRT
TLNFFYQQVKS [PTK2_Y148] was tested, and the phosphorylation enrichment was 0.849. For YLGRNYLETLM [DUS3L_Y610_D609N], the phosphorylation enrichment was 0.744. In the case of TFSPPYFHRNC [HGD_Y333_R330S_YF], the phosphorylation enrichment is reported as 0.83. With FKDVTYLTEEK [UBE3A_Y127] the phosphorylation enrichment was 0.683. Work on DPMNTYARPAE [SGMS2_Y24_T21M] yielded a phosphorylation enrichment of 0.542. Sequence WKGSWYSMKKM [FGB_Y475_R478K] has a phosphorylation enrichment of 0.553. WGLCSYFETSK [MAGED2_Y448_R446C_YF] gave a phosphorylation enrichment of 0.847. HCYNSYTYPRL [PAK7_Y316_S312C] showed a phosphorylation enrichment of 0.884. In the case of LENQTYFRSFE [AKAP9_Y2482_K2484R], the phosphorylation enrichment is reported as 1.02. KMLEKYKEQLN [TLK2_Y259_R262Q] was tested, and the phosphorylation enrichment was 0.56. For VKPENYRRQDI [VHL_Y175_L178Q], the phosphorylation enrichment was 0.4. Work on RTVDVYFGPQM [KIRREL3_Y332_R336Q] yielded a phosphorylation enrichment of 0.919. For ADCRFYAFPQM [GAMT_Y223_YF], the phosphorylation enrichment was 1.03. In the case of IGEGTYGTVFK [CDK5_Y15], the phosphorylation enrichment is reported as 0.58. Sequence VVQGLYKSMRK [KBTBD2_Y250_P254R] has a phosphorylation enrichment of 0.358. ETAVHYIHDGI [GATD3A_Y250_L248V] gave a phosphorylation enrichment of 0.543. In the case of SSEILYHIIKG [CDH17_Y489_K486E], the phosphorylation enrichment is reported as 8.65. In the case of CTTIPYNFMCN [TP53_Y234_H233P_YF], the phosphorylation enrichment is reported as 0.726. TAVNGYAFGGG [ECHS1_Y137_A132T] was tested, and the phosphorylation enrichment was 0.922. SVVVPYEPPEA [TP53_Y220_V225A] showed a phosphorylation enrichment of 0.738. Work on GVCKNYAEAKD [ALB_Y343_D338G] yielded a phosphorylation enrichment of 0.585. MFFSKYDRDND [FGB_Y408_T407K] was tested, and the phosphorylation enrichment was 0.66. In the case of PTATSYTPNLA [GABRA1_Y375], the phosphorylation enrichment is reported as 0.607. For TRRSSYEDSSL [HNF4A_Y144], the phosphorylation enrichment was 0.57. SLNAVYPRAGS [OAS3_Y376] was tested, and the phosphorylation enrichment was 0.357. Work on ISKQGYDEAGP [ACTC1_Y364_E363G] yielded a phosphorylation enrichment of 0.567. With ATHRGYDSDNP [MMUT_Y146] the phosphorylation enrichment was 0.472. With MKMISYETLIA [DOCK10_Y1350_T1347M] the phosphorylation enrichment was 0.629. FGSRLYKYAFK [FANCD2_Y458_L456R] showed a phosphorylation enrichment of 0.407.

The sequences below were run on Fer (mouse) in the same assay as above.
TLNFFYQQVKS [PTK2_Y148] was tested, and the phosphorylation enrichment was 0.575. YLGRNYLETLM [DUS3L_Y610_D609N] showed a phosphorylation enrichment of 0.487. For TFSPPYFHRNC [HGD_Y333_R330S_YF], the phosphorylation enrichment was 0.483. Work on FKDVTYLTEEK [UBE3A_Y127] yielded a phosphorylation enrichment of 0.423. DPMNTYARPAE [SGMS2_Y24_T21M] was tested, and the phosphorylation enrichment was 0.504. WKGSWYSMKKM [FGB_Y475_R478K] showed a phosphorylation enrichment of 0.353. WGLCSYFETSK [MAGED2_Y448_R446C_YF] gave a phosphorylation enrichment of 0.62. For HCYNSYTYPRL [PAK7_Y316_S312C], the phosphorylation enrichment was 0.684. For LENQTYFRSFE [AKAP9_Y2482_K2484R], the phosphorylation enrichment was 0.632. KMLEKYKEQLN [TLK2_Y259_R262Q] was tested, and the phosphorylation enrichment was 0.539. Sequence VKPENYRRQDI [VHL_Y175_L178Q] has a phosphorylation enrichment of 0.304. Sequence RTVDVYFGPQM [KIRREL3_Y332_R336Q] has a phosphorylation enrichment of 0.71. With ADCRFYAFPQM [GAMT_Y223_YF] the phosphorylation enrichment was 6.04. IGEGTYGTVFK [CDK5_Y15] gave a phosphorylation enrichment of 1.41. VVQGLYKSMRK [KBTBD2_Y250_P254R] gave a phosphorylation enrichment of 0.372. With ETAVHYIHDGI [GATD3A_Y250_L248V] the phosphorylation enrichment was 0.426. With SSEILYHIIKG [CDH17_Y489_K486E] the phosphorylation enrichment was 1.08. CTTIPYNFMCN [TP53_Y234_H233P_YF] showed a phosphorylation enrichment of 0.424. TAVNGYAFGGG [ECHS1_Y137_A132T] showed a phosphorylation enrichment of 0.62. Sequence SVVVPYEPPEA [TP53_Y220_V225A] has a phosphorylation enrichment of 0.593. GVCKNYAEAKD [ALB_Y343_D338G] was tested, and the phosphorylation enrichment was 0.359. With MFFSKYDRDND [FGB_Y408_T407K] the phosphorylation enrichment was 0.51. With PTATSYTPNLA [GABRA1_Y375] the phosphorylation enrichment was 0.571. For TRRSSYEDSSL [HNF4A_Y144], the phosphorylation enrichment was 0.447. With SLNAVYPRAGS [OAS3_Y376] the phosphorylation enrichment was 0.314. In the case of ISKQGYDEAGP [ACTC1_Y364_E363G], the phosphorylation enrichment is reported as 0.507. With ATHRGYDSDNP [MMUT_Y146] the phosphorylation enrichment was 0.418. In the case of MKMISYETLIA [DOCK10_Y1350_T1347M], the phosphorylation enrichment is reported as 0.467. Sequence FGSRLYKYAFK [FANCD2_Y458_L456R] has a phosphorylation enrichment of 0.473.

Each sequence was assayed against Fes (UniProt P07332) in the same assay as above.
Fes, sequence (P07332 whole entry, looked up): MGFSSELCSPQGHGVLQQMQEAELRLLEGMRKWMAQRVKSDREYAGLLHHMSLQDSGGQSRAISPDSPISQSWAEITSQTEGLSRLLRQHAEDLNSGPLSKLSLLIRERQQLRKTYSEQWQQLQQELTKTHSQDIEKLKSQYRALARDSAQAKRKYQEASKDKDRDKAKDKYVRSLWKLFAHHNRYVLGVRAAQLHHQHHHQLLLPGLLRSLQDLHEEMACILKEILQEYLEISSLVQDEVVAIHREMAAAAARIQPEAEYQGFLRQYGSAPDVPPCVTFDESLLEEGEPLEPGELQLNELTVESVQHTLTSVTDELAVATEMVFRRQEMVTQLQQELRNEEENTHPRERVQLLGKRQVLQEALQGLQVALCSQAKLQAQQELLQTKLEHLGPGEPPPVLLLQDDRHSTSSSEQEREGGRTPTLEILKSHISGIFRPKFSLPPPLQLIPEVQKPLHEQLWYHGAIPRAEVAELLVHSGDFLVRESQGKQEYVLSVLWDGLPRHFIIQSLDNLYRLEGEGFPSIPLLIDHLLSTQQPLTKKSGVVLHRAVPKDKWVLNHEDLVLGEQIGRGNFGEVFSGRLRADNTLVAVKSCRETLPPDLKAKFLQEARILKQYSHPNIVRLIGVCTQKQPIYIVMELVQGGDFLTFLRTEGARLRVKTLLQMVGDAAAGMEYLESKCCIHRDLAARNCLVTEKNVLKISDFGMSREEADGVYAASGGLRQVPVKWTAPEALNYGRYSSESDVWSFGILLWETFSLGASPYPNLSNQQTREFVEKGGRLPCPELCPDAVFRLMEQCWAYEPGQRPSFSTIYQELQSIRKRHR
TLNFFYQQVKS [PTK2_Y148] gave a phosphorylation enrichment of 1.15. YLGRNYLETLM [DUS3L_Y610_D609N] gave a phosphorylation enrichment of 0.926. TFSPPYFHRNC [HGD_Y333_R330S_YF] was tested, and the phosphorylation enrichment was 0.808. With FKDVTYLTEEK [UBE3A_Y127] the phosphorylation enrichment was 1.09. Sequence DPMNTYARPAE [SGMS2_Y24_T21M] has a phosphorylation enrichment of 0.883. WKGSWYSMKKM [FGB_Y475_R478K] was tested, and the phosphorylation enrichment was 0.918. WGLCSYFETSK [MAGED2_Y448_R446C_YF] showed a phosphorylation enrichment of 1.55. For HCYNSYTYPRL [PAK7_Y316_S312C], the phosphorylation enrichment was 1.47. In the case of LENQTYFRSFE [AKAP9_Y2482_K2484R], the phosphorylation enrichment is reported as 1.14. With KMLEKYKEQLN [TLK2_Y259_R262Q] the phosphorylation enrichment was 0.864. VKPENYRRQDI [VHL_Y175_L178Q] showed a phosphorylation enrichment of 0.504. RTVDVYFGPQM [KIRREL3_Y332_R336Q] gave a phosphorylation enrichment of 1.15. Work on ADCRFYAFPQM [GAMT_Y223_YF] yielded a phosphorylation enrichment of 1.57. Work on IGEGTYGTVFK [CDK5_Y15] yielded a phosphorylation enrichment of 0.793. VVQGLYKSMRK [KBTBD2_Y250_P254R] gave a phosphorylation enrichment of 0.464. With ETAVHYIHDGI [GATD3A_Y250_L248V] the phosphorylation enrichment was 0.726. For SSEILYHIIKG [CDH17_Y489_K486E], the phosphorylation enrichment was 0.875. CTTIPYNFMCN [TP53_Y234_H233P_YF] gave a phosphorylation enrichment of 0.926. With TAVNGYAFGGG [ECHS1_Y137_A132T] the phosphorylation enrichment was 0.723. Work on SVVVPYEPPEA [TP53_Y220_V225A] yielded a phosphorylation enrichment of 1.19. In the case of GVCKNYAEAKD [ALB_Y343_D338G], the phosphorylation enrichment is reported as 0.729. Work on MFFSKYDRDND [FGB_Y408_T407K] yielded a phosphorylation enrichment of 1.01. In the case of PTATSYTPNLA [GABRA1_Y375], the phosphorylation enrichment is reported as 0.521. Sequence TRRSSYEDSSL [HNF4A_Y144] has a phosphorylation enrichment of 0.707. SLNAVYPRAGS [OAS3_Y376] gave a phosphorylation enrichment of 0.481. In the case of ISKQGYDEAGP [ACTC1_Y364_E363G], the phosphorylation enrichment is reported as 1.01. In the case of ATHRGYDSDNP [MMUT_Y146], the phosphorylation enrichment is reported as 0.731. For MKMISYETLIA [DOCK10_Y1350_T1347M], the phosphorylation enrichment was 0.948. Sequence FGSRLYKYAFK [FANCD2_Y458_L456R] has a phosphorylation enrichment of 0.715.

These sequences were tested against Fyn (UniProt P06241) in the same assay as above.
Fyn, sequence (P06241 whole entry, looked up): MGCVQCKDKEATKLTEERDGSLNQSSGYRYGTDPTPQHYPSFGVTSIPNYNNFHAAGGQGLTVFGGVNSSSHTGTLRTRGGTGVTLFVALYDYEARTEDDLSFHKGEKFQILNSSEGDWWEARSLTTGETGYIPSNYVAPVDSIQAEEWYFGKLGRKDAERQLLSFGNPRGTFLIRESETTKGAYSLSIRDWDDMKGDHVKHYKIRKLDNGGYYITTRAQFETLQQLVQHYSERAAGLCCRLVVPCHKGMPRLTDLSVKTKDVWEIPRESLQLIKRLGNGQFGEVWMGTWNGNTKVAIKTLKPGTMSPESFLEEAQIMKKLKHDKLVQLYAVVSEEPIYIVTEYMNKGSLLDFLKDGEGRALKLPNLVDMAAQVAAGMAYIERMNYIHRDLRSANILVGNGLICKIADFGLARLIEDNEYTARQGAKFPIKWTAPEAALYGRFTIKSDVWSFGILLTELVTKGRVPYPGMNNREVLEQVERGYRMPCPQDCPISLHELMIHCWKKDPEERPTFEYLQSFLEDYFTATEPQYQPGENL
With TLNFFYQQVKS [PTK2_Y148] the phosphorylation enrichment was 0.516. With YLGRNYLETLM [DUS3L_Y610_D609N] the phosphorylation enrichment was 0.435. TFSPPYFHRNC [HGD_Y333_R330S_YF] showed a phosphorylation enrichment of 0.363. With FKDVTYLTEEK [UBE3A_Y127] the phosphorylation enrichment was 0.747. Work on DPMNTYARPAE [SGMS2_Y24_T21M] yielded a phosphorylation enrichment of 0.434. WKGSWYSMKKM [FGB_Y475_R478K] gave a phosphorylation enrichment of 0.488. WGLCSYFETSK [MAGED2_Y448_R446C_YF] gave a phosphorylation enrichment of 0.423. HCYNSYTYPRL [PAK7_Y316_S312C] gave a phosphorylation enrichment of 0.943. LENQTYFRSFE [AKAP9_Y2482_K2484R] gave a phosphorylation enrichment of 0.851. KMLEKYKEQLN [TLK2_Y259_R262Q] was tested, and the phosphorylation enrichment was 0.503. For VKPENYRRQDI [VHL_Y175_L178Q], the phosphorylation enrichment was 0.344. RTVDVYFGPQM [KIRREL3_Y332_R336Q] showed a phosphorylation enrichment of 1.45. In the case of ADCRFYAFPQM [GAMT_Y223_YF], the phosphorylation enrichment is reported as 0.76. With IGEGTYGTVFK [CDK5_Y15] the phosphorylation enrichment was 10.4. For VVQGLYKSMRK [KBTBD2_Y250_P254R], the phosphorylation enrichment was 0.421. Work on ETAVHYIHDGI [GATD3A_Y250_L248V] yielded a phosphorylation enrichment of 0.389. Work on SSEILYHIIKG [CDH17_Y489_K486E] yielded a phosphorylation enrichment of 2.85. In the case of CTTIPYNFMCN [TP53_Y234_H233P_YF], the phosphorylation enrichment is reported as 0.48. For TAVNGYAFGGG [ECHS1_Y137_A132T], the phosphorylation enrichment was 0.593. For SVVVPYEPPEA [TP53_Y220_V225A], the phosphorylation enrichment was 0.483. In the case of GVCKNYAEAKD [ALB_Y343_D338G], the phosphorylation enrichment is reported as 0.371. MFFSKYDRDND [FGB_Y408_T407K] showed a phosphorylation enrichment of 0.501. PTATSYTPNLA [GABRA1_Y375] showed a phosphorylation enrichment of 0.643. TRRSSYEDSSL [HNF4A_Y144] showed a phosphorylation enrichment of 0.53. Sequence SLNAVYPRAGS [OAS3_Y376] has a phosphorylation enrichment of 0.331. ISKQGYDEAGP [ACTC1_Y364_E363G] gave a phosphorylation enrichment of 0.452. For ATHRGYDSDNP [MMUT_Y146], the phosphorylation enrichment was 0.404. Sequence MKMISYETLIA [DOCK10_Y1350_T1347M] has a phosphorylation enrichment of 0.468. Work on FGSRLYKYAFK [FANCD2_Y458_L456R] yielded a phosphorylation enrichment of 0.341.
